Test results as given in PMC1472246, “Structural Basis for a Munc13–1 Homodimer to Munc13–1/RIM Heterodimer Switch” (PLoS Biology, 2006).
Like-named read-outs stand apart in the source and are kept apart here.

B1: RIM2α(82–142) (domain or fragment, rat, UniProt Q9JIS1-1 82-142, looked up)
chain: QQEQKGDAPTCGICHKTKFADGCGHNCSYCQTKFCARCGGRVSLRSNKVMWVCNLCRKQQE
notes: also called RIM2α ZF domain; RIM2α zinc-finger domain; source: bacteria, GST fusion, purified (glutathione-Sepharose, GST cleaved, size-exclusion or ion-exchange chromatography)
B2: Munc13–1(3–209) (domain or fragment, rat, UniProt Q62768 3-209, looked up)
chain: LLCVGVKKAKFDGAQEKFNTYVTLKVQNVKSTTIAVRGSQPSWEQDFMFEINRLDLGLTVEVWNKGLIWDTMVGTVWIPLRTIRQSNEEGPGEWLTLDSQAIMADSEICGTKDPTFHRILLDAHFELPLDIPEEEARYWAKKLEQLNAMRDQDEYSFQDQQDKPLPVPSSQCCNWNYFGWGEQNDDPDSAVDDRDSDYRSETSNSIP
notes: Munc13-1, rat, residues 3-209; Forms a homodimer (AUC); 15N-labelled for NMR; source: bacteria, GST fusion, purified (glutathione-Sepharose, GST cleaved, size-exclusion or ion-exchange chromatography)
B3: Munc13–1(3–150) (domain or fragment, rat, UniProt Q62768 3-150, looked up)
chain: LLCVGVKKAKFDGAQEKFNTYVTLKVQNVKSTTIAVRGSQPSWEQDFMFEINRLDLGLTVEVWNKGLIWDTMVGTVWIPLRTIRQSNEEGPGEWLTLDSQAIMADSEICGTKDPTFHRILLDAHFELPLDIPEEEARYWAKKLEQLNA
notes: Munc13-1, rat, residues 3-150 (C2A domain and C-terminal extension); Forms a homodimer (AUC); 15N-labelled for NMR; source: bacteria, GST fusion, purified (glutathione-Sepharose, GST cleaved, size-exclusion or ion-exchange chromatography)
B4: Munc13–1(3–132) (domain or fragment, rat, UniProt Q62768 3-132, looked up)
chain: LLCVGVKKAKFDGAQEKFNTYVTLKVQNVKSTTIAVRGSQPSWEQDFMFEINRLDLGLTVEVWNKGLIWDTMVGTVWIPLRTIRQSNEEGPGEWLTLDSQAIMADSEICGTKDPTFHRILLDAHFELPLD
notes: Forms a homodimer (AUC); source: bacteria, GST fusion, purified (glutathione-Sepharose, GST cleaved, size-exclusion or ion-exchange chromatography)
B5: Munc13–1(3–128) (domain or fragment, rat, UniProt Q62768 3-128, looked up)
chain: LLCVGVKKAKFDGAQEKFNTYVTLKVQNVKSTTIAVRGSQPSWEQDFMFEINRLDLGLTVEVWNKGLIWDTMVGTVWIPLRTIRQSNEEGPGEWLTLDSQAIMADSEICGTKDPTFHRILLDAHFE
notes: Cloned into a modified pGEX-KG vector with a TEV protease cleavage site; Forms a homodimer (AUC, crystal structure); 15N-labelled for NMR; also called Munc13–1 C2A domain; Munc13–1 C2A-domain homodimer; source: bacteria, GST fusion, purified (glutathione-Sepharose, GST cleaved, size-exclusion or ion-exchange chromatography)

Columns and labels:
[1] = biological target: RIM2α ZF domain (Rattus norvegicus) (UniProt Q9JIS1); details: cited from earlier work
[2] = biological target: RIM2α ZF domain (Rattus norvegicus) (UniProt Q9JIS1); details: cited from earlier work; remark: listed apart in the source
Munc13–1(3–150) = biological target: B3; assay: SEC; gel filtration on Superdex S75 or S200; 30 mM Tris-HCl, 150 mM NaCl, 1 mM TCEP, pH 7.4; isolated proteins and their mixtures (Figures 1B, 4A); details: both partners purified
Munc13–1(3–209) = biological target: B2; assay: as above; details: both partners purified
[3] = biological target: Munc13–1(3–150)(K32E) (rat) (UniProt Q62768); assay: ITC; 200 μM Rim2α(82-142) injected into 10-20 μM Munc13-1(3-150)(K32E) in the cell; 20 °C; 30 mM Tris pH 7.4, 150 mM NaCl, 1 mM TCEP; single-site model; apparent Kd
[4] = biological target: the molecule itself; assay: AUC; sedimentation equilibrium at 20,000-35,000 rpm, 4 °C; 30 mM Tris pH 8.0, 150 mM NaCl, 1 mM TCEP; loading 12.46-13.65 μM; monomer/dimer equilibrium model, dimer to monomers; the paper notes that constants below 50-100 nM are not quite accurate

| Molecule | Kd [4] | stoichiometry N [4] | also measured |
| --- | --- | --- | --- |
| Munc13-1 3-209 (from UniProt Q62768) |  |  | Kd [1]: 70 nM |
| Munc13-1 3-150 (from UniProt Q62768) |  |  | Kd [2]: 350 nM |
| B1 |  |  | binding result (Munc13–1(3–150)): binds; binding result (Munc13–1(3–209)): binds; Kd [3]: 100 nM; stoichiometry N [3]: 1 |
| B2 | 1.9 nM | 2 |  |
| B3 | 5.2 nM | 2 |  |
| B4 | 80 nM | 2 |  |
| B5 | 310 nM | 2 |  |
